From paper PMC3368889 (Immunity, 2012)

Molecular target: the molecule itself
Assay: SEC

B1: C-terminal fragment of human NLRX1 (residues 629-975) (domain or fragment, UniProt Q86UT6 629-975, looked up)
chain: GLLSAHNRAVLAQLGCPIKNLDALENAQAIKKKLGKLGRQVLPPSELLDHLFFHYEFQNQRFSAEVLSSLRQLNLAGVRMTPVKCTVVAAVLGSGRHALDEVNLASCQLDPAGLRTLLPVFLRARKLGLQLNSLGPEACKDLRDLLLHDQCQITTLRLSNNPLTAAGVAVLMEGLAGNTSVTHLSLLHTGLGDEGLELLAAQLDRNRQLQELNVAYNGAGDTAALALARAAREHPSLELLHLYFNELSSEGRQVLRDLGGAAEGGARVVVSLTEGTAVSEYWSVILSEVQRNLNSWDRARVQRHLELLLRDLEDSRGATLNPWRKAQLLRVEGEVRALLEQLGSSGS
Q: How did the “stoichiometry N” value turn out when B1 was run?
A: The value was 2.
